# Data taken from IntAct's records for PubMed 19556969.
# B1: Regulator of nonsense transcripts 2 (Homo sapiens), Q9HAU5 (parent)
# chain: MPAERKKPASMEEKDSLPNNKEKDCSERRTVSSKERPKDDIKLTAKKEVSKAPEDKKKRLEDDKRKKEDKERKKKDEEKVKAEEESKKKEEEEKKKHQEEERKKQEEQAKRQQEEEAAAQMKEKEESIQLHQEAWERHHLRKELRSKNQNAPDSRPEENFFSRLDSSLKKNTAFVKKLKTITEQQRDSLSHDFNGLNLSKYIAEAVASIVEAKLKISDVNCAVHLCSLFHQRYADFAPSLLQVWKKHFEARKEEKTPNITKLRTDLRFIAELTIVGIFTDKEGLSLIYEQLKNIINADRESHTHVSVVISFCRHCGDDIAGLVPRKVKSAAEKFNLSFPPSEIISPEKQQPFQNLLKEYFTSLTKHLKRDHRELQNTERQNRRILHSKGELSEDRHKQYEEFAMSYQKLLANSQSLADLLDENMPDLPQDKPTPEEHGPGIDIFTPGKPGEYDLEGGIWEDEDARNFYENLIDLKAFVPAILFKDNEKSCQNKESNKDDTKEAKESKENKEVSSPDDLELELENLEINDDTLELEGGDEAEDLTKKLLDEQEQEDEEASTGSHLKLIVDAFLQQLPNCVNRDLIDKAAMDFCMNMNTKANRKKLVRALFIVPRQRLDLLPFYARLVATLHPCMSDVAEDLCSMLRGDFRFHVRKKDQINIETKNKTVRFIGELTKFKMFTKNDTLHCLKMLLSDFSHHHIEMACTLLETCGRFLFRSPESHLRTSVLLEQMMRKKQAMHLDARYVTMVENAYYYCNPPPAEKTVKKKRPPLQEYVRKLLYKDLSKVTTEKVLRQMRKLPWQDQEVKDYVICCMINIWNVKYNSIHCVANLLAGLVLYQEDVGIHVVDGVLEDIRLGMEVNQPKFNQRRISSAKFLGELYNYRMVESAVIFRTLYSFTSFGVNPDGSPSSLDPPEHLFRIRLVCTILDTCGQYFDRGSSKRKLDCFLVYFQRYVWWKKSLEVWTKDHPFPIDIDYMISDTLELLRPKIKLCNSLEESIRQVQDLEREFLIKLGLVNDKDSKDSMTEGENLEEDEEEEEGGAETEEQSGNESEVNEPEEEEGSDNDDDEGEEEEEENTDYLTDSNKENETDEENTEVMIKGGGLKHVPCVEDEDFIQALDKMMLENLQQRSGESVKVHQLDVAIPLHLKSQLRKGPPLGGGEGEAESADTMPFVMLTRKGNKQQFKILNVPMSSQLAANHWNQQQAEQEERMRMKKLTLDINERQEQEDYQEMLQSLAQRPAPANTNRERRPRYQHPKGAPNADLIFKTGGRRR
# partner: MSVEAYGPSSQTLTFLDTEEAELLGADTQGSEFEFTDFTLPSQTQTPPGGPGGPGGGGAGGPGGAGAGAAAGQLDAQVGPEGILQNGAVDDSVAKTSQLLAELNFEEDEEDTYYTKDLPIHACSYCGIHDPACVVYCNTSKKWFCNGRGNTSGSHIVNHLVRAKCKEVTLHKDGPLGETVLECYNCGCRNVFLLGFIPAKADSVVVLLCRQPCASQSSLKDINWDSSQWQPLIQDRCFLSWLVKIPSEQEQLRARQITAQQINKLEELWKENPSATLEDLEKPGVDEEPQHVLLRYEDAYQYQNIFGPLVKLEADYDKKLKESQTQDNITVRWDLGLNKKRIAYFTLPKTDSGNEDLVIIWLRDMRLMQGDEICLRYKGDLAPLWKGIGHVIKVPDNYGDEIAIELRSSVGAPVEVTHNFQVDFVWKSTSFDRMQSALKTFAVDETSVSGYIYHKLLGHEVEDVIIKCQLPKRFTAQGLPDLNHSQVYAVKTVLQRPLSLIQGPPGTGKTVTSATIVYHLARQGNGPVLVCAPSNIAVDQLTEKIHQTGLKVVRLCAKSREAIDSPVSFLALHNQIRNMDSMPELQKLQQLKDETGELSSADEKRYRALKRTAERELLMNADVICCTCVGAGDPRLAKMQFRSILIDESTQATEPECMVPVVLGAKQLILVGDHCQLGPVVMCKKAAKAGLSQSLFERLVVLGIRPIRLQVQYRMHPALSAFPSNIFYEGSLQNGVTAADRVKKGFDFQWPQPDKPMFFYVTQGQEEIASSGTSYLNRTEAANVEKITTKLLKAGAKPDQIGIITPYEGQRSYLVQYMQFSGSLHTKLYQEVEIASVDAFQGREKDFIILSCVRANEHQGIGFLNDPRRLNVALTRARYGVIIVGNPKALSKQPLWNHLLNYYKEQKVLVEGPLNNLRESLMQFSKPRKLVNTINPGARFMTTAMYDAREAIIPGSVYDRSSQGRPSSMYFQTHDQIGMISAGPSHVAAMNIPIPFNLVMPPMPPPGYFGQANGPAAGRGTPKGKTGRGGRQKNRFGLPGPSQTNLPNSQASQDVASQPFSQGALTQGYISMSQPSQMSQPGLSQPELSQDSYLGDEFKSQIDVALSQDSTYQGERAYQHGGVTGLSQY
# Variants of: B1
# Details: with rent1_human UPF1, Q92900
row,Variant,effect of a mutation on the interaction
1,L1174E,disrupting interaction

# Variants of: B1
# Details: with rent1_human UPF1, Q92900
# Remark: another data set of the same source
row,Variant,effect of a mutation on the interaction
1,R1176E,decreasing interaction

# Variants of: B1
# Details: with rent1_human UPF1, Q92900
# Remark: another data set of the same source
row,Variant,effect of a mutation on the interaction
1,M1173E,disrupting interaction

# Variants of: B1
# Details: with rent1_human UPF1, Q92900
# Remark: another data set of the same source
row,Variant,effect of a mutation on the interaction
1,M1120E,decreasing interaction

# Variants of: B1
# Details: with rent1_human UPF1, Q92900
# Remark: another data set of the same source
row,Variant,effect of a mutation on the interaction
1,M1169E,decreasing interaction

# Variants of: B1
# Details: with rent1_human UPF1, Q92900
# Remark: another data set of the same source
row,Variant,effect of a mutation on the interaction
1,F1113E,disrupting interaction

# Variants of: B1
# Details: with rent1_human UPF1, Q92900
# Remark: another data set of the same source
row,Variant,effect of a mutation on the interaction
1,E1123R,decreasing interaction

# Variants of: B1
# Details: with rent1_human UPF1, Q92900
# Remark: another data set of the same source
row,Variant,effect of a mutation on the interaction
1,F1171E,disrupting interaction

# Variants of: B1
# Details: with rent1_human UPF1, Q92900
# Remark: another data set of the same source
row,Variant,effect of a mutation on the interaction
1,M1121E,decreasing interaction
